Data: patent US20180369425A1, “LINKED AND OTHER pH-TRIGGERED COMPOUNDS” (priority 2017, published 2018)
Residues, ends and D or L forms follow the SMILES beside them. *: point of attachment. X1 = CC1(C)C(/C=C/C=C/C=C/C=C2/N(CCCCCC(=O)NCCN3C(=O)CC(*)C3=O)c3ccc4ccccc4c3C2(C)C)=[N+](CCCCS(=O)(=O)[O-])c2ccc3ccccc3c21

Tested on: 4T1 tumor
Assay: Ex vivo NIRF imaging of organs (biodistribution and kinetics of ICG-pHLIP)
Assay type: in vivo, mouse
Details: for Fluorescence intensity, Stomach / Fluorescence intensity, Tumor / Fluorescence intensity, Bone / Fluorescence intensity, Brain / Fluorescence intensity, Heart / Fluorescence intensity, Kidneys / Fluorescence intensity, L. Intest. / Fluorescence intensity, Liver / Fluorescence intensity, Lungs / Fluorescence intensity, Muscle / Fluorescence intensity, Pancreas / Fluorescence intensity, S. Intest. / Fluorescence intensity, Skin / Fluorescence intensity, Spleen: mean ± St. D., 5 animals
Description: BALB/cAcNHsd mice ranging in age from 5 to 6 weeks obtained from Envigo RMS Inc were used in the study. Mouse mammary 4T1 cancer cells were subcutaneously implanted in the right flank (8×10^5 cells/0.1 mL/flank) of adult female mice. Triple negative 4T1 tumor model closely mimics stage IV of human breast cancer. When tumors reached 5-6 mm in diameter, single tail vein injections of 2.5 nmol (or 0.5 mg/kg) of ICG-pHLIP in sterile PBS with 5% DMSO or 5% Ethanol (volume of the injection was 100 μl) were performed. The whole body and ex vivo imaging was performed using a Stryker 1588 AIM clinical imaging system with L10 AIM Light Source, 1588 AIM Camera using a 10 mm or 5 mm scope.
Animals were euthanized at time points: 5 min, 1 hr, 2 hrs, 4 hrs, 6 hrs, 16 hrs, 26 hrs and 48 hrs. […] 100 μl of blood was collected immediately after euthanasia and mixed with 12.5 μl of citrate-dextrose anticoagulant solution (kept at 4° C.), and necropsy was performed. Tumor, muscles, skin, heart, lungs, liver, spleen, kidneys, brain, pancreas, bone, stomach, small and large intestines were collected, imaged immediately after collection, weighed, and fast frozen in liquid nitrogen.
The ex vivo imaging of organs was performed using a Stryker 1588 AIM clinical imaging system with L10 AIM Light Source, 1588 AIM Camera using a 10 mm scope. The lens was spaced 4.3 cm away from the surface of the organs within an enclosed (light protected) area. The NIRF imaging of each organ was performed at three different laser intensities set on a hexadecimal scale as 0B-22 (low), 12-5C (medium), and 20-3A (high). The digital images of organs were processed using program written in Python to determine the average level of intensity recorded in the green channel. Since organs were imaged in the dark on black mats, the background signal was determined by introducing an intensity threshold. All the pixels with intensity from the green channel above the set threshold were counted and the average green intensity per pixel was calculated. Thus, the mean intensity per organ (Table 17a) and averaged over organs from 5 animals (Table 17b) was calculated.

## CC(C)C[C@H](NC(=O)[C@H](Cc1ccc(O)cc1)NC(=O)[C@H](C)NC(=O)[C@H](CCCNC(=N)N)NC(=O)[C@H](Cc1c[nH]c2ccccc12)NC(=O)[C@@H]1CCCN1C(=O)[C@H](CC(N)=O)NC(=O)[C@H](CCC(N)=O)NC(=O)[C@H](CC(=O)O)NC(=O)[C@H](CC(=O)O)NC(=O)[C@H](CSC1CC(=O)N(CCNC(=O)CCCCCN2/C(=C/C=C/C=C/C=C/C3=[N+](CCCCS(=O)(=O)[O-])c4ccc5ccccc5c4C3(C)C)C(C)(C)c3c2ccc2ccccc32)C1=O)NC(=O)[C@H](C)N)C(=O)N[C@@H](CC(=O)O)C(=O)N[C@@H](CC(C)C)C(=O)N[C@@H](CC(C)C)C(=O)N[C@@H](Cc1ccccc1)C(=O)N1CCC[C@H]1C(=O)N[C@H](C(=O)N[C@@H](CC(=O)O)C(=O)N[C@H](C(=O)N[C@@H](CC(C)C)C(=O)N[C@@H](CC(C)C)C(=O)N[C@@H](CC(C)C)C(=O)N[C@@H](CC(=O)O)C(=O)N[C@@H](CC(C)C)C(=O)N[C@@H](CC(C)C)C(=O)N[C@@H](Cc1c[nH]c2ccccc12)C(=O)N[C@@H](C)C(=O)O)[C@@H](C)O)[C@@H](C)O (some centres unmarked) [ICG-pHLIP] (H-AC(X1)DDQNPWRAYLDLLFPTDTLLLDLLWA-OH)
2 hours p.i.
  Fluorescence intensity, Stomach: 80.7 ± 18.6 a.u.
  Fluorescence intensity, Tumor: 133.9 ± 14.2 a.u.
4 hours p.i.
  Fluorescence intensity, Bone: 63.1 ± 21.0 a.u.
  Fluorescence intensity, Brain: 73.8 ± 8.3 a.u.
  Fluorescence intensity, Heart: 185.6 ± 7.2 a.u.
  Fluorescence intensity, Kidneys: 185.5 ± 6.2 a.u.
  Fluorescence intensity, L. Intest.: 7.9 ± 17.6 a.u.
  Fluorescence intensity, Liver: 540.1 ± 18.8 a.u.
  Fluorescence intensity, Lungs: 187.0 ± 17.2 a.u.
  Fluorescence intensity, Muscle: 26.2 ± 24.6 a.u.
  Fluorescence intensity, Pancreas: 92.0 ± 2.5 a.u.
  Fluorescence intensity, S. Intest.: 64.9 ± 16.3 a.u.
  Fluorescence intensity, Skin: 48.2 ± 11.6 a.u.
  Fluorescence intensity, Spleen: 150.9 ± 11.4 a.u.
  Fluorescence intensity, Stomach: 108.4 ± 6.5 a.u.
  Fluorescence intensity, Tumor: 211.2 ± 15.7 a.u.
6 hours p.i.
  Fluorescence intensity, Bone: 66.7 ± 16.0 a.u.
  Fluorescence intensity, Brain: 55.3 ± 11.0 a.u.
  Fluorescence intensity, Heart: 163.0 ± 8.2 a.u.
  Fluorescence intensity, Kidneys: 174.0 ± 5.0 a.u.
  Fluorescence intensity, L. Intest.: 27.1 ± 15.6 a.u.
  Fluorescence intensity, Liver: 527.1 ± 44.4 a.u.
  Fluorescence intensity, Lungs: 156.8 ± 15.9 a.u.
  Fluorescence intensity, Muscle: 0.0 ± 0.0 a.u.
  Fluorescence intensity, Pancreas: 82.2 ± 15.3 a.u.
  Fluorescence intensity, S. Intest.: 54.2 ± 11.6 a.u.
  Fluorescence intensity, Skin: 47.1 ± 13.6 a.u.
  Fluorescence intensity, Spleen: 148.1 ± 13.4 a.u.
  Fluorescence intensity, Stomach: 126.8 ± 9.9 a.u.
  Fluorescence intensity, Tumor: 198.6 ± 33.0 a.u.
16 hours p.i.
  Fluorescence intensity, Bone: 66.2 ± 8.5 a.u.
  Fluorescence intensity, Brain: 35.3 ± 1.8 a.u.
  Fluorescence intensity, Heart: 129.2 ± 15.7 a.u.
  Fluorescence intensity, Kidneys: 170.6 ± 12.8 a.u.
  Fluorescence intensity, L. Intest.: 40.5 ± 4.0 a.u.
  Fluorescence intensity, Liver: 400.5 ± 34.1 a.u.
  Fluorescence intensity, Lungs: 141.3 ± 21.5 a.u.
  Fluorescence intensity, Muscle: 0.0 ± 0.0 a.u.
  Fluorescence intensity, Pancreas: 70.3 ± 30.0 a.u.
  Fluorescence intensity, S. Intest.: 83.8 ± 13.6 a.u.
  Fluorescence intensity, Skin: 76.7 ± 20.4 a.u.
  Fluorescence intensity, Spleen: 116.3 ± 25.0 a.u.
  Fluorescence intensity, Stomach: 117.3 ± 33.1 a.u.
  Fluorescence intensity, Tumor: 222.8 ± 11.0 a.u.
26 hours p.i.
  Fluorescence intensity, Bone: 42.8 ± 6.4 a.u.
  Fluorescence intensity, Brain: 0.0 ± 0.0 a.u.
  Fluorescence intensity, Heart: 61.3 ± 6.6 a.u.
  Fluorescence intensity, Kidneys: 111.8 ± 7.9 a.u.
  Fluorescence intensity, L. Intest.: 0.0 ± 0.0 a.u.
  Fluorescence intensity, Liver: 213.1 ± 9.7 a.u.
  Fluorescence intensity, Lungs: 64.2 ± 13.9 a.u.
  Fluorescence intensity, Muscle: 8.6 ± 19.2 a.u.
  Fluorescence intensity, Pancreas: 30.9 ± 17.9 a.u.
  Fluorescence intensity, S. Intest.: 37.8 ± 4.7 a.u.
  Fluorescence intensity, Skin: 25.1 ± 24.8 a.u.
  Fluorescence intensity, Spleen: 48.0 ± 7.7 a.u.
  Fluorescence intensity, Stomach: 59.1 ± 13.4 a.u.
  Fluorescence intensity, Tumor: 182.6 ± 14.7 a.u.
p.i.
  time of maximum signal in liver: 1 h
